This assay deals with Avi-barnase (G34C/H102A), biotinylated, labeled with Alexa 488. As to the kind of experiment: FRET or BRET; single-molecule FRET; donor-labeled barnase immobilised on PEG-coated glass via biotin-NeutrAvidin, acceptor-labeled barstar (20 nM) in solution; 10 mM Tris pH 7, 0 mM NaCl and higher (printed kA at 0 mM NaCl); 22 °C; illumination 0.3 μW; two-state maximum likelihood analysis with correction for acceptor photobleaching.

Substance “Cys-barstar, labeled with Alexa 647 (natural protein)” registered a kon of 1e+08 M⁻¹ s⁻¹.

One may read the kon as a measure of how fast the partners come together. A low value points to slower complex formation.

The record behind these values is article PMC6226484.
